Measurements from article PMC4036514, “Requirement for A-type cyclin-dependent kinase and cyclins for the terminal division in the stomatal lineage of Arabidopsis”.

T1: His-FLP (FOUR LIPS) (Arabidopsis thaliana, UniProt Q94FL6 1-436)
T1 sequence: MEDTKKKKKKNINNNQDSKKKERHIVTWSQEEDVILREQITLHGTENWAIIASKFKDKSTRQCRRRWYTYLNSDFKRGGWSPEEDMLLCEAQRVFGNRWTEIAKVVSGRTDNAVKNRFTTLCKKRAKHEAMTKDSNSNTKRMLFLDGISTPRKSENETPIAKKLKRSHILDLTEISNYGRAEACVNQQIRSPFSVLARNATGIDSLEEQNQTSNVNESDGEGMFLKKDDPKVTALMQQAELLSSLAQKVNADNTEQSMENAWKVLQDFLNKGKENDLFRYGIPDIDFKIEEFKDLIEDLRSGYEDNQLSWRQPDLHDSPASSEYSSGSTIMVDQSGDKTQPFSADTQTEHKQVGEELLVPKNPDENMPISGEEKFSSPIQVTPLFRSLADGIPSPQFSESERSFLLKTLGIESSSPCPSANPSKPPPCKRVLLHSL

T2: His-MYB88 (Arabidopsis thaliana, UniProt F4IRB4 1-484)
T2 sequence: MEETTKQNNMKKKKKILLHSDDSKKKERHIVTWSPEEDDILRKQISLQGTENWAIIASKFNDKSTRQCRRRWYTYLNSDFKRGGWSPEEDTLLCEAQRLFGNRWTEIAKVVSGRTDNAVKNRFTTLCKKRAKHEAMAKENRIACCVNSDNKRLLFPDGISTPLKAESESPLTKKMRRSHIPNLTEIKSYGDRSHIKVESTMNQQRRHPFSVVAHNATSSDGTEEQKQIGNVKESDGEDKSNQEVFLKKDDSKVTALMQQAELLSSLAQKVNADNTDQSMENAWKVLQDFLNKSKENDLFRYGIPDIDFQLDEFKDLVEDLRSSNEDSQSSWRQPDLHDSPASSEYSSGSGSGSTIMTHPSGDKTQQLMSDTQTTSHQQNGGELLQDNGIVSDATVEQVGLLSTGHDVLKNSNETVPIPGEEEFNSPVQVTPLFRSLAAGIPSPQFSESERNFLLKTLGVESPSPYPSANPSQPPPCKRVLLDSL

B1: pCDKA-C+D (elements C and D) (dsDNA)
DNA 1: TTACTCTCAATTAGTCAATCCCCTTCCCTAGTCCTCCTCTCTTCAAGCTTTTCACAGAA
DNA 2: TTCTGTGAAAAGCTTGAAGAGAGGAGGACTAGGGAAGGGGATTGACTAATTGAGAGTAA
B2: pCDKA-B (element B) (dsDNA)
DNA 1: CTTGACACAAAAAAAAAAAAAGAAGAAAGAAAAAACCCTTACTCTCAATTAGTCAATCC
DNA 2: GGATTGACTAATTGAGAGTAAGGGTTTTTTCTTTCTTCTTTTTTTTTTTTTGTGTCAAG
B3: pCDKA-A (element A) (dsDNA)
DNA 1: TAATAAATAAAATTGTACCAAATTAATGCGGTTAGGTAAATTCAATTTATTGGAAATTA
DNA 2: TAATTTCCAATAAATTGAATTTACCTAACCGCATTAATTTGGTACAATTTTATTTATTA

How the values were obtained:
His-FLP (FOUR LIPS) = target: T1, His-FLP (FOUR LIPS); assay: EMSA; EMSA: 1x LightShift binding buffer, 2.5% glycerol, 50 mM KCl, 5 mM MgCl2, 0.05% NP-40, 10 mM EDTA, room temperature 20 min; pH not stated; settings: protein: recombinant; tags: His (pET-28a); label: 3' biotin; blunt
His-MYB88 = target: T2, His-MYB88; assay: as above; settings: protein: recombinant; tags: His (pET-28a); label: 3' biotin; blunt

| Binder | binding result (His-FLP (FOUR LIPS)) | binding result (His-MYB88) |
| --- | --- | --- |
| B1 | binds | binds |
| B2 | binds | binds |
| B3 | binds | binds |
